Data from the supplement of paper PMC10065799, “High-throughput profiling of sequence recognition by tyrosine kinases and SH2 domains using bacterial peptide display” (eLife, 2023).

Key:
AncSZ = assay: phosphorylation enrichment, bacterial display (enrichment ratio); higher = better substrate or ligand; peptides without Tyr show the background
EPHB1 = EPHB1 (UniProt P54762); assay: as above
EPHB2 = EPHB2 (UniProt P29323); assay: as above
FGFR1 = FGFR1 (UniProt P11362); assay: as above
FGFR3 = FGFR3 (UniProt P22607); assay: as above
Fer (mouse) = assay: as above
Fes = Fes (UniProt P07332); assay: as above
Fes, sequence (P07332 whole entry, looked up): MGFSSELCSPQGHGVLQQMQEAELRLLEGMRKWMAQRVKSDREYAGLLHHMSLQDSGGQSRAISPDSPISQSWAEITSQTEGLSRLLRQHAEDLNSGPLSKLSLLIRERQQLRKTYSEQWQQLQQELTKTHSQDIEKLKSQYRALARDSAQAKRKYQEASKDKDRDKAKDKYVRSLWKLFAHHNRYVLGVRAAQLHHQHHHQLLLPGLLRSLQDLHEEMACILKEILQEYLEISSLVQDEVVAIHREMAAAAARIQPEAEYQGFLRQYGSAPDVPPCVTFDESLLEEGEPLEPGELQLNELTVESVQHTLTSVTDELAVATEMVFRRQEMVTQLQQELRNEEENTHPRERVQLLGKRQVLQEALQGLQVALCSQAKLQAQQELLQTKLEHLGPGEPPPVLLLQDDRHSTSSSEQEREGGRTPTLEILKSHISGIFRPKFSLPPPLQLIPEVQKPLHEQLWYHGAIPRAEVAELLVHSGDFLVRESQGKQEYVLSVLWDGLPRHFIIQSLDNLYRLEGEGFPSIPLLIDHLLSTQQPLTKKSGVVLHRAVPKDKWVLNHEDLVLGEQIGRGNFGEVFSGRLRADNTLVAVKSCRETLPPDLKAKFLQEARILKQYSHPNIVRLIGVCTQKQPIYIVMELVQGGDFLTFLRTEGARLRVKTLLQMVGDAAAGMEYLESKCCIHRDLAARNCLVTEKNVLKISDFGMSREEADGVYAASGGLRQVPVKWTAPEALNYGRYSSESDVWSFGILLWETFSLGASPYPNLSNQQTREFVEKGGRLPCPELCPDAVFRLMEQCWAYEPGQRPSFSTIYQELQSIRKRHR

Fyn = Fyn (UniProt P06241); assay: as above
Fyn, sequence (P06241 whole entry, looked up): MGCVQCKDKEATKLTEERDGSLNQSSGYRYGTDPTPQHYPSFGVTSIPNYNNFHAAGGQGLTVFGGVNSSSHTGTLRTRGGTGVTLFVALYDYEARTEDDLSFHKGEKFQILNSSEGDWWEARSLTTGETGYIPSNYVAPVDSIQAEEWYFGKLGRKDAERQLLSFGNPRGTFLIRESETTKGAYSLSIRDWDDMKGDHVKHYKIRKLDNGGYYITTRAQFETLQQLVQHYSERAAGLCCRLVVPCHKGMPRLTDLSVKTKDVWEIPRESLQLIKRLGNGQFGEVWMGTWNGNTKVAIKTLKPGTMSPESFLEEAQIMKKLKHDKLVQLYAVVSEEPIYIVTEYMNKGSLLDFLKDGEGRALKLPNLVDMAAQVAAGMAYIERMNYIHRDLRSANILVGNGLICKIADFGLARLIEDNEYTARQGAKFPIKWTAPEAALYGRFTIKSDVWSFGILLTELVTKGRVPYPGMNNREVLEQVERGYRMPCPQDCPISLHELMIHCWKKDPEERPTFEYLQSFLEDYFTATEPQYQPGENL

Hck = Hck (UniProt P08631); assay: as above
Hck, sequence (P08631 whole entry, looked up): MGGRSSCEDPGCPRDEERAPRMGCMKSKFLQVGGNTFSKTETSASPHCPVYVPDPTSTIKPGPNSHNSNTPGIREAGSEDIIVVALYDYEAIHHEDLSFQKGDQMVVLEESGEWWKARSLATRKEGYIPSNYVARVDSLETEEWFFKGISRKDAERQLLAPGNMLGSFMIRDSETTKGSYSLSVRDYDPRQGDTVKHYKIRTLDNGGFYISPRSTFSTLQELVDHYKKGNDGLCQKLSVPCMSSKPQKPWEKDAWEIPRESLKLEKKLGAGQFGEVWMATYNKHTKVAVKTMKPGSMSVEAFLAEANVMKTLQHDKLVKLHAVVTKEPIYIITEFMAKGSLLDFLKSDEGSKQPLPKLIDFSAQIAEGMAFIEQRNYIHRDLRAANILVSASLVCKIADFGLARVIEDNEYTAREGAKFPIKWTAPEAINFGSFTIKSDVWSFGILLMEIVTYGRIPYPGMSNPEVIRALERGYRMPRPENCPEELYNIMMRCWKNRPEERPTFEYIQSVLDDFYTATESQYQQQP

Jak2 = Jak2 (UniProt O60674); assay: as above
Jak2, sequence (O60674 whole entry, looked up): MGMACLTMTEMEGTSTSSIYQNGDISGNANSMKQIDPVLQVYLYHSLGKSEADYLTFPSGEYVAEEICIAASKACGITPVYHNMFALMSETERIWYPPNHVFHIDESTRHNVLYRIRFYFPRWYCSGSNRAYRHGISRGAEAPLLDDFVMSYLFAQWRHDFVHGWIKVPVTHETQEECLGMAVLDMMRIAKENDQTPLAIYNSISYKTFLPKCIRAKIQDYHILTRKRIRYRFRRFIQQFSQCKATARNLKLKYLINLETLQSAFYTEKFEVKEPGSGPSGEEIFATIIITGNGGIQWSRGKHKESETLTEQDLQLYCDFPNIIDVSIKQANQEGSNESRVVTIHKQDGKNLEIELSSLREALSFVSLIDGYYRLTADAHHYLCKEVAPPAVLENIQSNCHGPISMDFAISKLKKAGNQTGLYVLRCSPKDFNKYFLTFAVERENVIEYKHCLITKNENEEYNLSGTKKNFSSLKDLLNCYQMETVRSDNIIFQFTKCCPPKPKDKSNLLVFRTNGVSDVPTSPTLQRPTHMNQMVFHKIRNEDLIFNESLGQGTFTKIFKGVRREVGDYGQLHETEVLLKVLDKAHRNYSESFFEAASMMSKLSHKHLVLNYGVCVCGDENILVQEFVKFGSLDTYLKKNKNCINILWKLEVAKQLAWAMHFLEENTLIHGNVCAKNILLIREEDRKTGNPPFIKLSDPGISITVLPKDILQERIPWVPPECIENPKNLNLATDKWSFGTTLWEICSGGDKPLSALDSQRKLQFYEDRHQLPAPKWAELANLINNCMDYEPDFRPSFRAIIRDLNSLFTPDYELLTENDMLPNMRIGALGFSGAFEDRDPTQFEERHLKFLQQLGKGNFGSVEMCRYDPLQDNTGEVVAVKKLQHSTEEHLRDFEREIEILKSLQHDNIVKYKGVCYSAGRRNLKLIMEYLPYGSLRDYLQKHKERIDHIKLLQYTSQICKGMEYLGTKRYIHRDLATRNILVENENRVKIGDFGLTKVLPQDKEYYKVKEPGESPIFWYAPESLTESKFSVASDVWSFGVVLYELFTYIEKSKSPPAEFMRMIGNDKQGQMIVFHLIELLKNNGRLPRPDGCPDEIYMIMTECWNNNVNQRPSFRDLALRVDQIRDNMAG

MERTK = MERTK (UniProt Q12866); assay: as above
MERTK, sequence (Q12866 whole entry, looked up): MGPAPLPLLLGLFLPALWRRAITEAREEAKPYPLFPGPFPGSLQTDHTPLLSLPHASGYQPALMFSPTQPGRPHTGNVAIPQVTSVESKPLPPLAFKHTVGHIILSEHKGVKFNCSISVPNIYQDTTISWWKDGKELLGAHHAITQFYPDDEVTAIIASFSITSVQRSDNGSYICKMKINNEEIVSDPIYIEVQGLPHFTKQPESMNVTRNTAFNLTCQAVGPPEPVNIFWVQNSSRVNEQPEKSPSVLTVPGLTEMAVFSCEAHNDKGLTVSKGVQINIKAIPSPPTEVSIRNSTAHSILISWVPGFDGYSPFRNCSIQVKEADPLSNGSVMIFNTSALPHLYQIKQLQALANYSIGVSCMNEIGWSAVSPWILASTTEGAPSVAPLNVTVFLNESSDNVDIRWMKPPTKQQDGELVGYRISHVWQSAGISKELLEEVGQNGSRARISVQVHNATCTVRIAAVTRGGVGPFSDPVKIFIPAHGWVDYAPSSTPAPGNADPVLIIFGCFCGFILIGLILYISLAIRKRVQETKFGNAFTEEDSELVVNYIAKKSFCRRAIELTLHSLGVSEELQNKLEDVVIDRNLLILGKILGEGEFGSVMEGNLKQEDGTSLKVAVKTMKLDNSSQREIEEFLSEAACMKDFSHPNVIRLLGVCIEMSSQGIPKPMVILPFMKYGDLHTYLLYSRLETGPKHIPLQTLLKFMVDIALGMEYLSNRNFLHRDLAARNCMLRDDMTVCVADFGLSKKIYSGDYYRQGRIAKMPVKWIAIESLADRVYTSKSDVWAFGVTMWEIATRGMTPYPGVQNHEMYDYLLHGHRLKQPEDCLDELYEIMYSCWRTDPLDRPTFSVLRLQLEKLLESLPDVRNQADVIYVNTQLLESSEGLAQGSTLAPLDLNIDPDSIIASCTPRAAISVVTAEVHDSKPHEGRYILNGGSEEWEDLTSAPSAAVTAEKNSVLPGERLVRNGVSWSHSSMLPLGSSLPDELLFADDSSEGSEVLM

c-Abl (mouse) = assay: as above
c-Src = assay: as above
Grb2 SH2 = Grb2 SH2 (UniProt P62993); assay: SH2 binding enrichment of the phosphorylated peptide, bacterial display (enrichment ratio); higher = better substrate or ligand; peptides without Tyr show the background
SHP2-C SH2 = assay: as above
c-Src SH2 = assay: as above
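Wherever SH2 binding enrichment of the phosphorylated peptide, bacterial display is given: peptide library displayed on the E. coli surface as eCPX fusions, selected cells deep-sequenced, score is each peptide's frequency after selection divided by its frequency in the input.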
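Wherever phosphorylation enrichment, bacterial display is given: 11-residue human phosphosite peptides and single-mutation variants displayed on the E. coli surface, counted by deep sequencing, each peptide's frequency after selection divided by its frequency in the unselected input library; frequency after pTyr selection over input frequency; kinase dosed for 20-30% of maximal phosphorylation in three min.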

EPHB1, sequence (P54762 whole entry, looked up): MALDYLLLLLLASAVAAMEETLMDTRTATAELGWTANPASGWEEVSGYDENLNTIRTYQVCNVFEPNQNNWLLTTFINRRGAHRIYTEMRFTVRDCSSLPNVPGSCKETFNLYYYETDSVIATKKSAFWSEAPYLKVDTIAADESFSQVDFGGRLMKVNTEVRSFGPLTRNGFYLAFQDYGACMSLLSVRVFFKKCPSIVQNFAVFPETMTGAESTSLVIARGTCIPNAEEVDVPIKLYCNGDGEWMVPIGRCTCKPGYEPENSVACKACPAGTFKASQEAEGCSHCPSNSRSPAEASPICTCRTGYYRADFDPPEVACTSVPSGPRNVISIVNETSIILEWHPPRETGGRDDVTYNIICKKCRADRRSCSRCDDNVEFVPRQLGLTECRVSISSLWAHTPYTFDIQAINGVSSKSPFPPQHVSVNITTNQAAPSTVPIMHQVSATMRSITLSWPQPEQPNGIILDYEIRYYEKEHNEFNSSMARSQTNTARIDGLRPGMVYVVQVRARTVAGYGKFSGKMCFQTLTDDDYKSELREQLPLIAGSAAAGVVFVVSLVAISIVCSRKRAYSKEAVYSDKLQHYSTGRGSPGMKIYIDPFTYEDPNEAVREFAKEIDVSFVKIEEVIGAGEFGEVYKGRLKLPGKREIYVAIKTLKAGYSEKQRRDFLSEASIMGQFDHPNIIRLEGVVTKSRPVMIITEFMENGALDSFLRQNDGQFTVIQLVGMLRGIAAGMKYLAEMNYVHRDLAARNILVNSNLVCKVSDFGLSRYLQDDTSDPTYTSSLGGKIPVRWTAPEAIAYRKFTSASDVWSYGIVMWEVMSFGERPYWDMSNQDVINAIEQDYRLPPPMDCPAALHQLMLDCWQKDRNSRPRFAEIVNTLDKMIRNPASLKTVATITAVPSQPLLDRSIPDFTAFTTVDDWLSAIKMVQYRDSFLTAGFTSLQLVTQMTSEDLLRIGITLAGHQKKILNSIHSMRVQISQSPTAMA

Sequence | SH2 binding enrichment (Grb2 SH2) | SH2 binding enrichment (SHP2-C SH2) | SH2 binding enrichment (c-Src SH2) | phosphorylation enrichment (AncSZ) | phosphorylation enrichment (EPHB1) | phosphorylation enrichment (EPHB2) | phosphorylation enrichment (FGFR1) | phosphorylation enrichment (FGFR3) | phosphorylation enrichment (Fer (mouse)) | phosphorylation enrichment (Fes) | phosphorylation enrichment (Fyn) | phosphorylation enrichment (Hck) | phosphorylation enrichment (Jak2) | phosphorylation enrichment (MERTK) | phosphorylation enrichment (c-Abl (mouse)) | phosphorylation enrichment (c-Src)
ADEEEYEIIAA [FEStide_E_2014] | 0.711 | 0.97 | 0.521 | 1.74 | 0.662 | 0.683 | 0.635 | 1.08 | 0.73 | 1.32 | 0.619 | 0.654 | 1.45 | 0.564 | 1.09 | 0.724
ADPQEYIPLPA [JAKtide_2014] | 1 | 0.809 | 0.571 | 0.904 | 0.529 | 0.49 | 0.75 | 0.693 | 0.457 | 0.983 | 0.512 | 0.549 | 0.865 | 0.425 | 0.628 | 0.468
ADVLDYIKALN [HPRT1_Y81_L78V] | 0.76 | 0.869 | 0.553 | 0.756 | 0.459 | 0.534 | 0.532 | 0.629 | 0.415 | 0.814 | 0.507 | 0.489 | 0.748 | 0.542 | 0.467 | 0.463
AEMKRYSESSS [RAI14_Y869_A870S] | 0.744 | 0.767 | 0.541 | 0.524 | 0.308 | 0.329 | 0.681 | 0.523 | 0.38 | 0.638 | 0.503 | 0.37 | 0.678 | 0.337 | 0.43 | 0.382
AEPPDYSPVTQ [ADGRG2_Y285_H290Q] | 0.82 | 0.93 | 0.441 | 1.46 | 0.435 | 0.626 | 0.514 | 0.717 | 0.546 | 1.16 | 0.444 | 0.557 | 0.95 | 0.342 | 0.99 | 0.522
AFLEDYFTSTE [SRC_Y522] | 0.967 | 0.959 | 0.578 | 1.91 | 0.598 | 0.606 | 1.16 | 1.42 | 0.572 | 1.83 | 0.54 | 0.549 | 1.46 | 0.578 | 1.31 | 0.783
AFRRGYFDEEM [PLEC_Y2971_YF] | 0.73 | 0.334 | 0.636 | 1.58 | 0.514 | 0.616 | 0.633 | 0.673 | 0.445 | 1.29 | 0.622 | 0.599 | 1.7 | 0.551 | 0.763 | 0.6
AHAGEYGEEAL [HBA1_Y25_A27E] | 0.745 | 0.599 | 0.473 | 1.25 | 0.664 | 0.736 | 0.66 | 0.793 | 0.615 | 1.47 | 0.576 | 0.821 | 1.35 | 0.544 | 1.01 | 0.582
AISEGYKDFRA [CDA_Y79_V75I] | 0.829 | 0.536 | 0.31 | 0.617 | 0.353 | 0.415 | 0.425 | 0.524 | 0.313 | 0.638 | 0.323 | 0.405 | 0.617 | 0.382 | 0.622 | 0.499
ANARMYGVLPW [PLP1_Y207_D203N] | 0.814 | 0.749 | 0.503 | 0.74 | 0.513 | 0.676 | 0.462 | 0.506 | 0.474 | 0.783 | 4.99 | 6.06 | 0.616 | 0.734 | 0.846 | 3.85
ARSHIYTFASC [MEFV_Y741] | 0.834 | 0.763 | 1.66 | 0.932 | 0.488 | 0.533 | 0.491 | 0.653 | 0.563 | 1 | 1.41 | 0.671 | 0.866 | 0.808 | 0.849 | 1.3
ASELGYQFQAI [UROD_Y133_V134Q] | 0.795 | 0.652 | 0.826 | 0.77 | 0.362 | 0.5 | 0.525 | 0.59 | 0.493 | 0.92 | 0.407 | 0.468 | 0.679 | 0.387 | 0.596 | 0.46
ASTDFYKRGDF [PDHA1_Y243_YF] | 0.614 | 0.611 | 0.5 | 0.719 | 0.374 | 0.375 | 0.413 | 0.431 | 0.475 | 0.795 | 0.325 | 0.39 | 0.749 | 0.345 | 0.515 | 0.52
ATHRSYDSDNP [MMUT_Y146_G145S] | 1.07 | 0.509 | 0.651 | 1.13 | 0.346 | 0.459 | 0.593 | 0.511 | 0.422 | 0.777 | 0.47 | 0.476 | 0.543 | 0.57 | 0.518 | 0.447

Second part, led by results:

SH2 binding enrichment (Grb2 SH2) | SH2 binding enrichment (SHP2-C SH2) | SH2 binding enrichment (c-Src SH2) | Sequence | phosphorylation enrichment (AncSZ) | phosphorylation enrichment (EPHB1) | phosphorylation enrichment (EPHB2) | phosphorylation enrichment (FGFR1) | phosphorylation enrichment (FGFR3) | phosphorylation enrichment (Fer (mouse)) | phosphorylation enrichment (Fes) | phosphorylation enrichment (Fyn) | phosphorylation enrichment (Hck) | phosphorylation enrichment (Jak2) | phosphorylation enrichment (MERTK) | phosphorylation enrichment (c-Abl (mouse)) | phosphorylation enrichment (c-Src)
0.834 | 0.661 | 0.464 | ACLSLYGGFVE [MVD_Y164_R161L] | 1.67 | 1.21 | 1.13 | 0.681 | 1.31 | 0.817 | 2.02 | 5.43 | 3.83 | 1.92 | 0.607 | 1.46 | 4.75
0.849 | 0.626 | 0.518 | ADAHHYLCKEV [JAK2_Y382] | 0.678 | 0.851 | 0.752 | 0.588 | 0.554 | 0.488 | 0.879 | 0.485 | 0.549 | 0.837 | 0.429 | 0.644 | 0.543
1.05 | 0.7 | 0.443 | ADARMYGVLPW [PLP1_Y207] | 0.793 | 0.945 | 2.48 | 0.511 | 0.545 | 0.594 | 0.84 | 9.58 | 9.33 | 0.7 | 3.38 | 1.24 | 6.65
0.679 | 0.598 | 0.465 | ADGLEYPRTGL [MMUT_Y287_S288P] | 0.722 | 0.425 | 0.55 | 0.414 | 0.59 | 0.47 | 0.835 | 0.508 | 0.47 | 0.495 | 0.319 | 0.528 | 0.288
0.902 | 0.961 | 0.612 | ADLVQYFMEHH [PTPN11_Y80_E76D_YF] | 1.1 | 0.654 | 0.545 | 0.501 | 0.708 | 0.46 | 1.06 | 0.784 | 0.53 | 1 | 0.394 | 0.8 | 0.517
0.807 | 0.698 | 0.446 | AFDNLYYWDQD [ERBB2_Y1221] | 2.31 | 5.88 | 4.41 | 9.23 | 9.6 | 3.07 | 2.42 | 6.31 | 5.36 | 1.55 | 7.32 | 0.81 | 5.67
0.816 | 0.643 | 0.679 | AGQEEYSAMRD [HRAS_Y64] | 0.879 | 0.507 | 0.547 | 0.477 | 0.591 | 0.429 | 0.931 | 0.462 | 0.498 | 0.788 | 0.418 | 0.678 | 0.456
0.683 | 0.676 | 0.396 | AHAGEYGAEAL [HBA1_Y25] | 0.675 | 0.368 | 0.394 | 0.35 | 0.517 | 0.382 | 0.816 | 0.387 | 0.464 | 0.66 | 0.343 | 0.629 | 0.392
1.03 | 1.16 | 1.19 | AKRKNYAPVTM [CFAP47_Y557_A561T] | 0.459 | 0.365 | 0.364 | 0.418 | 0.34 | 0.286 | 0.518 | 0.387 | 0.371 | 0.351 | 0.431 | 0.454 | 0.445
0.889 | 0.599 | 0.511 | ALETLYKKAVK [CC2D2A_Y381_E376A] | 0.559 | 0.348 | 0.366 | 0.405 | 0.475 | 0.446 | 0.864 | 0.342 | 0.396 | 0.603 | 0.338 | 0.463 | 0.307
0.756 | 0.676 | 0.412 | ALIKAYVKAVA [SMN1_Y43_D44V] | 0.966 | 0.65 | 0.534 | 0.623 | 0.639 | 0.445 | 0.995 | 0.462 | 0.464 | 1.12 | 0.481 | 0.68 | 0.557
0.991 | 0.845 | 0.711 | ALVDTYCRHNF [HLA-DRB1_Y107_A103L_YF] | 0.782 | 0.55 | 0.613 | 0.472 | 0.682 | 0.588 | 0.935 | 0.454 | 0.577 | 0.847 | 0.549 | 0.683 | 0.538
0.75 | 0.503 | 0.597 | APQFTYTQGGQ [FLNA_Y1763_A1764T_YF] | 0.602 | 0.444 | 0.536 | 0.482 | 0.582 | 0.423 | 0.681 | 0.5 | 0.395 | 0.552 | 0.367 | 0.444 | 0.42
1.08 | 0.794 | 14.5 | AQPHTYEEPGR [EPHA8_Y616_E612Q] | 0.74 | 0.519 | 0.577 | 0.459 | 0.46 | 0.458 | 0.729 | 0.481 | 0.46 | 0.83 | 0.394 | 0.465 | 0.452
1.03 | 0.614 | 0.591 | AQQPIYIRVEG [NLRP7_Y318_V319I] | 1.12 | 1.3 | 1.2 | 0.652 | 0.702 | 0.588 | 1.18 | 0.525 | 0.733 | 0.955 | 0.641 | 0.725 | 0.793
0.779 | 0.782 | 0.479 | ARKWGYTVKGI [OAT_Y158] | 0.914 | 0.503 | 0.448 | 0.437 | 0.517 | 0.352 | 0.912 | 0.423 | 0.354 | 0.668 | 0.377 | 0.724 | 0.327
0.61 | 0.47 | 0.3 | ARRHPYFYAPE [ALB_Y172] | 0.883 | 0.488 | 0.553 | 1.87 | 1.08 | 0.58 | 0.766 | 0.641 | 0.575 | 0.8 | 0.893 | 0.605 | 0.972
0.776 | 0.769 | 0.49 | ARVANYHRDGP [CAT_Y386_Q387H] | 0.523 | 0.309 | 0.378 | 0.519 | 0.394 | 0.372 | 0.514 | 0.44 | 0.36 | 0.491 | 0.385 | 0.457 | 0.395
0.982 | 0.886 | 0.715 | ASKEPYFVHCI [MYO1D_Y585_R588H_YF] | 0.846 | 1.05 | 0.481 | 0.583 | 0.882 | 0.56 | 0.881 | 0.503 | 0.475 | 0.675 | 0.427 | 0.611 | 0.523
